Test results taken from paper PMC3386239.

Molecular target: Skp1 (mouse, endogenous in RAW264.7 cells) (mouse (endogenous in RAW264.7)) (UniProt Q9WTX5)
Chain of UniProt Q9WTX5 (Q9WTX5 whole entry): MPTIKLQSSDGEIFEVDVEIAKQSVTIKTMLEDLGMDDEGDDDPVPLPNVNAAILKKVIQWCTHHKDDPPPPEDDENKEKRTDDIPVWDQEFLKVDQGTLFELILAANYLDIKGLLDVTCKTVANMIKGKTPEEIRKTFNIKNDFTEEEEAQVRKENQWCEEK

Substance | NFκB-driven luciferase in RAW264.7 cells infected with ΔgogB complemented with GogBΔ264–352 (F-box motif deleted), fold of wild type Salmonella (fold of wild type) | NFκB-driven luciferase in RAW264.7 cells infected with ΔgogB complemented with GogB-NT (C-terminal domain deleted), fold of wild type Salmonella (fold of wild type)
GogB Δ264–352 (in-frame deletion of the F-box-like domain), HA-tagged, delivered by the T3SS (natural protein) | 4 | –
GogB-NT (amino acids 1-253, N-terminal LRR domain), HA-tagged, delivered by the T3SS (domain or fragment) | – | 4
